Each block holds one binder with its values, some of them ahead of it.
Molecular target: T1, full-length II–III loop of the skeletal muscle dihydropyridine receptor α1S subunit (UniProt P07293 665-785)
T1 construct: cytosolic II–III loop of the DHPR α1S subunit (skeletal muscle voltage-dependent L-type calcium channel), 115 amino acids; The methods' sentence 'genes for human STAC2SH3s and the DHPR II–III loop' leaves open whether the loop is human; Used unlabelled (SPR, immobilised) and 15N-labelled (NMR); also called DHPR II–III loop; full II–III loop
T1 sequence (looked up): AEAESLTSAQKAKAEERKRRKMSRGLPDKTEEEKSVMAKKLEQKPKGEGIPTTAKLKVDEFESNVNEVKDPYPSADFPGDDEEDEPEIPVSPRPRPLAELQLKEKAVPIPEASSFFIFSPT
Assay: SPR; full DHPR II–III loop immobilised on a CM5 chip by amine coupling; STAC proteins flowed over at 30 μL/min for 120 s; Biacore 8K, 20°C; 10 mM HEPES-HCl pH 7.4, 150 mM NaCl, 0.05% Tween-20, 3 mM EDTA; affinity curve
Conditions: both partners purified

Kd: 21 µM
B1: tandem SH3 domains of STAC3 (SH3 and cysteine-rich domain-containing protein 3) (domain or fragment, human)
chain: GFQQSHYFVALYRFKALEKDDLDFPPGEKITVIDDSNEEWWRGKIGEKVGFFPPNFIIRVRAGERVHRVTRSFVGNREIGQITLKKDQIVVQKGDEAGGYVKVYTGRKVGLFPTDFLEEI
notes: human STAC3, tandem SH3 domains (SH3_1 and SH3_2) at the C-terminal end; Used unlabelled (SPR, titrant in NMR) and 15N-labelled (NMR titration with the C3 peptide); also called STAC3SH3s

Kd: 22.6 µM
B2: tandem SH3 domains of STAC2 (domain or fragment, human)
chain: SYVALYKFLPQENNDLALQPGDRIMLVDDSNEDWWKGKIGDRVGFFPANFVQRVRPGENVWRCCQPFSGNKEQGYMSLKENQICVGVGRSKDADGFIRVSSGKKRGLVPVDALTEI
notes: human STAC2, tandem SH3 domains (SH3_1 and SH3_2) at the C-terminal end; Used unlabelled (SPR) and 15N-labelled (NMR); also called STAC2SH3s
